Tests used:
[1] = target: T1, human-chicken LAP-TGFβ1 chimera #2.2 on HT1080 cells (human/chicken chimera, UniProt P01137 30-390); assay: flow cytometry, HT1080 cells
T1 construct: also called HT1080-ch2.2
Protocol: (§1) These constructs were subcloned into lentivirus and transduced into HT1080 cells. Successful gene integration was confirmed by expression of a green fluorescent protein (GFP) reporter gene. LAP-TGFβ1 expression was evaluated by flow cytometry using a rabbit monoclonal antibody (Rmab) raised against a peptide from the mature cytokine (residues 250-361) domain (Abeam cat #ab179695), 28G11_(hyb) and 2C9_(hyb). Briefly, 4×10⁵ each of (a) HT1080 cells, (b) HT1080 cells overexpressing human LAP-TGFβ1, (c) HT1080 cells overexpressing chicken LAP-TGFβ1, and (d) HT1080 cells overexpressing human/chicken chimeras #1-#7 were cultured in 96-well plates. The plates were centrifuged for 5 min at 1,500 rpm, liquid was removed, and cells were resuspended with 200 μL FACS buffer. The plates were centrifuged again, diluted primary antibody was added to each well, and the plates were incubated on ice for 20 minutes, followed by centrifugation. The cells were resuspended in 200 μL FACS buffer, centrifuged again, and resuspended in 50 μL diluted secondary antibody (APC-anti-Mouse IgG). The plates were incubated on ice for 20 minutes in the dark, washed twice with 200 μL FACS buffer, and cells from each well (in 200 μL FACS buffer) were read on the Attune NXT instrument. The antibodies were considered to be binding if >10% of cells were GFP+/APC+ and there was visible correlation between the GFP and allophycocyanin (APC) signals (Table 5).

[2] = target: T2, chicken LAP-TGFβ1 on HT1080 cells (chicken, UniProt P09531 19-391); assay: flow cytometry, HT1080 cells
T2 construct: also called chB1
T2 sequence: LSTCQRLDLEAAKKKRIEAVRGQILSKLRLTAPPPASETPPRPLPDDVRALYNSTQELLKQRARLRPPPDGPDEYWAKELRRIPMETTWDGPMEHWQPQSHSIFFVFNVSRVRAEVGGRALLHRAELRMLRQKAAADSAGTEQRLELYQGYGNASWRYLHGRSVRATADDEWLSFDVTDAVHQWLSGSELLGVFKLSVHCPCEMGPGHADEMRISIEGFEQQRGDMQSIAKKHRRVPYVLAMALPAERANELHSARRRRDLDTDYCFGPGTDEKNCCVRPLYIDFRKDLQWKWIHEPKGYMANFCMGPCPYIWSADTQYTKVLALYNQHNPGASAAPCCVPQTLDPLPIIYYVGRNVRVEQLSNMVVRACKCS
Protocol: as §1

[3] = target: T3, human-chicken LAP-TGFβ1 chimera #2.1 on HT1080 cells (human/chicken chimera, UniProt P01137 30-390); assay: flow cytometry, HT1080 cells
T3 sequence (P01137 other isoform, or with tags, fused parts or gaps mutant): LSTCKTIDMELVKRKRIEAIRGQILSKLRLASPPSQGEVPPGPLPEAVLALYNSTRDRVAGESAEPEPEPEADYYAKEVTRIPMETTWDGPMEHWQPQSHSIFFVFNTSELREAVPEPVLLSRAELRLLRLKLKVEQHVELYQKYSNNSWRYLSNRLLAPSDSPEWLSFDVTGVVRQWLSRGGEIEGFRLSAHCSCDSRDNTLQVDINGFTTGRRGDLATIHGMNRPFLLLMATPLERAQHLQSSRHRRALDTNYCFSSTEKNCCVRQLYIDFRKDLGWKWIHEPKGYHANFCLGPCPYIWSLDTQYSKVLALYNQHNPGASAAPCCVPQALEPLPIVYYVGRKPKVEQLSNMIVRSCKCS
Protocol: as §1

[4] = target: T4, human LAP-TGFβ1 overexpressed on cells (human, UniProt P01137 30-390); assay: flow cytometry, transduced HT1080 cells
T4 construct: HT1080 or P3U1 cells overexpressing wild-type human LAP-TGFβ1; also called HT1080-huB1; HT1080-hβ1
T4 sequence (P01137 30-390): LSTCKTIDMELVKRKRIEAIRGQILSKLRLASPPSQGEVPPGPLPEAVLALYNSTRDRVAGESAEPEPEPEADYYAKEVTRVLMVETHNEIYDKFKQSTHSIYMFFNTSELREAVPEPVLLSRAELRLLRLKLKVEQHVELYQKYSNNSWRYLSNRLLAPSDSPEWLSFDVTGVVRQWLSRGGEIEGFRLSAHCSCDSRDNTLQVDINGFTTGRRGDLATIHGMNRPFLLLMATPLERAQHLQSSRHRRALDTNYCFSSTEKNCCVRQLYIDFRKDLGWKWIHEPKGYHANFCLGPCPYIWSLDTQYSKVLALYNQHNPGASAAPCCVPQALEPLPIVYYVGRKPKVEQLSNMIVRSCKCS
Protocol: as §1

[5] = target: T1, human-chicken LAP-TGFβ1 chimera #2.2 on …; assay: flow cytometry, transduced HT1080 cells
Protocol: as §1

[6] = target: T5, human-chicken LAP-TGFβ1 chimera #2.3 on HT1080 cells (human/chicken chimera, UniProt P01137 30-390); assay: flow cytometry, transduced HT1080 cells
T5 construct: also called HT1080-ch2.3
T5 sequence (P01137 other isoform, or with tags, fused parts or gaps mutant): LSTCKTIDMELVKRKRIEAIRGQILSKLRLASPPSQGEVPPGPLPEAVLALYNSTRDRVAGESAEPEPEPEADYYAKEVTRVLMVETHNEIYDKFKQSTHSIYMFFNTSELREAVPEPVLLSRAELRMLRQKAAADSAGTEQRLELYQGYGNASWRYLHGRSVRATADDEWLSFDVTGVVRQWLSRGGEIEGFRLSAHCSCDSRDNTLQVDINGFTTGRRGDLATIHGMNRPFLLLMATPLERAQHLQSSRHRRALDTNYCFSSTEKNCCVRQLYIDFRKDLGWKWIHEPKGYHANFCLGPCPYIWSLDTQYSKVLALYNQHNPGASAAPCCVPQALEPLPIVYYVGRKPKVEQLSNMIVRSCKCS
Protocol: as §1

[7] = target: T2, chicken LAP-TGFβ1 on HT1080 cells; assay: flow cytometry, transduced HT1080 cells
Protocol: as §1

[8] = target: human-chicken LAP-TGFβ1 chimera #1.3 on HT1080 cells (human/chicken chimera, UniProt P01137 30-390); assay: flow cytometry, transduced HT1080 cells
Chain of human-chicken LAP-TGFβ1 chimera #1.3 on HT1080 cells (P01137 other isoform, or with tags, fused parts or gaps mutant): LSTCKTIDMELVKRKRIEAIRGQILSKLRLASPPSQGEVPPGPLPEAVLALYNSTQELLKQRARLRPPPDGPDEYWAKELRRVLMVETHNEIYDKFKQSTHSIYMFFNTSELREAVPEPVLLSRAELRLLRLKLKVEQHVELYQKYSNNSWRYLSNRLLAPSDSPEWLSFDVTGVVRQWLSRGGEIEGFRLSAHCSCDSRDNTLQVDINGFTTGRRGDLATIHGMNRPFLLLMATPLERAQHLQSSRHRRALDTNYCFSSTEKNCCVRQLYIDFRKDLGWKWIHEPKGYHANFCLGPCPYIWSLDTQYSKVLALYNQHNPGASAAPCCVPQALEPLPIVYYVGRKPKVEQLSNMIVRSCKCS
Protocol: as §1

[9] = target: human-chicken LAP-TGFβ1 chimera #1.2 on HT1080 cells (human/chicken chimera, UniProt P01137 30-390); assay: flow cytometry, transduced HT1080 cells
Chain of human-chicken LAP-TGFβ1 chimera #1.2 on HT1080 cells (P01137 other isoform, or with tags, fused parts or gaps mutant): as the sequence (P01137 30-390) above, with A31T, S32A, S35P, Q36A, G37S, V39T, G42R, E46D, A47D, L49R counted along it
Protocol: as §1

[10] = target: human-chicken LAP-TGFβ1 chimera #6 on HT1080 cells (human/chicken chimera, UniProt P01137 30-390); assay: flow cytometry, transduced HT1080 cells
Chain of human-chicken LAP-TGFβ1 chimera #6 on HT1080 cells (P01137 other isoform, or with tags, fused parts or gaps mutant): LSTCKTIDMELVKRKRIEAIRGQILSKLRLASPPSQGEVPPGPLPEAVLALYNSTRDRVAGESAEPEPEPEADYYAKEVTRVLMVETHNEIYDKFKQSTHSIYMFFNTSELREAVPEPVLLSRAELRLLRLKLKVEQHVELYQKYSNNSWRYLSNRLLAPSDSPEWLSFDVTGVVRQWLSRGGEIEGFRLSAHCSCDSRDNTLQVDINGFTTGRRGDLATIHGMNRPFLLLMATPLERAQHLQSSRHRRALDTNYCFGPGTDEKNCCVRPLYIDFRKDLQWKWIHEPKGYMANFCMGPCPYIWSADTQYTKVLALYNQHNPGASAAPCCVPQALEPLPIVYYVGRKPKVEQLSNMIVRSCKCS
Protocol: as §1

[11] = target: human-chicken LAP-TGFβ1 chimera #3 on HT1080 cells (human/chicken chimera, UniProt P01137 30-390); assay: flow cytometry, transduced HT1080 cells
Chain of human-chicken LAP-TGFβ1 chimera #3 on HT1080 cells (P01137 other isoform, or with tags, fused parts or gaps mutant): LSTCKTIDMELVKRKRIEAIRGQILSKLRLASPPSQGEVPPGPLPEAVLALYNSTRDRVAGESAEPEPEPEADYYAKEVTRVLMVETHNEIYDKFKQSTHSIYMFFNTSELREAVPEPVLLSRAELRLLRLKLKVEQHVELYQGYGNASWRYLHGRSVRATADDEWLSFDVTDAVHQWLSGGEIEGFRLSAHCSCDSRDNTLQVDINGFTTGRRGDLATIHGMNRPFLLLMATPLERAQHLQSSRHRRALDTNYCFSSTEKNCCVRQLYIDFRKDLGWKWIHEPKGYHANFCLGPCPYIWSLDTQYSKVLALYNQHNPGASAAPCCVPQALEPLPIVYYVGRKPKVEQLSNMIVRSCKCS
Protocol: as §1

[12] = target: human-chicken LAP-TGFβ1 chimera #5 on HT1080 cells (human/chicken chimera); assay: flow cytometry, transduced HT1080 cells
Chain of human-chicken LAP-TGFβ1 chimera #5 on HT1080 cells (human/chicken chimera) (chain, as listed by the source mutant limits assumed): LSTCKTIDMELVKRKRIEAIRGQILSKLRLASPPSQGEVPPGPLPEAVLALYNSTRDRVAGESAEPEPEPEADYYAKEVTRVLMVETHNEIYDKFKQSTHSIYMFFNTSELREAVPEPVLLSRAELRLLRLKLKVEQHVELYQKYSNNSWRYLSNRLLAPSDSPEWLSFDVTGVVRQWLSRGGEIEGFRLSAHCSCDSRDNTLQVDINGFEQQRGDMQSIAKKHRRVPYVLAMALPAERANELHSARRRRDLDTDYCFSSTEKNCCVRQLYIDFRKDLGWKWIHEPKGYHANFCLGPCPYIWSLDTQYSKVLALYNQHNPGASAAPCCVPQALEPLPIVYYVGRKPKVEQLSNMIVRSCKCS
Protocol: as §1

[13] = target: T3, human-chicken LAP-TGFβ1 chimera #2.1 on …; assay: flow cytometry, transduced HT1080 cells
Protocol: as §1

[14] = target: T6, human-chicken LAP-TGFβ1 chimera #4 on HT1080 cells (human/chicken chimera, UniProt P01137 30-390); assay: flow cytometry, transduced HT1080 cells
T6 construct: also called HT1080-ch4
T6 sequence (P01137 other isoform, or with tags, fused parts or gaps mutant): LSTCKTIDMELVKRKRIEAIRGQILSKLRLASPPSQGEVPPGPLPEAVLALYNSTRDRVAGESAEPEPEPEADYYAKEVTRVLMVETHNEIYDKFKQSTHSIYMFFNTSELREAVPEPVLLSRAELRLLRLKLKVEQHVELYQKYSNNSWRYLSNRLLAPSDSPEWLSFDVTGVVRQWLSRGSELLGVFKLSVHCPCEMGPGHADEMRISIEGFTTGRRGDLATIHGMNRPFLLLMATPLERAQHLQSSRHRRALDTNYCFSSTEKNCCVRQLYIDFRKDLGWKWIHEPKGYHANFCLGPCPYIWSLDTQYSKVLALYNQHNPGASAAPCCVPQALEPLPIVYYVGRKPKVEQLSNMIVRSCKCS
Protocol: as §1

[15] = target: human-chicken LAP-TGFβ1 chimera #7 on HT1080 cells (human/chicken chimera, UniProt P01137 30-390); assay: flow cytometry, transduced HT1080 cells
Protocol: as §1

LAP-TGFβ1 on U937 cells [16] = target: T7, LAP-TGFβ1 on U937 cells (Homo sapiens, UniProt P01137); assay: flow cytometry, U937 cells, Alexa 647 antibody, % LAP+ cells
T7 construct: cell surface, endogenous; also called LAP+ U937 cells
T7 sequence (P01137 30-390 limits assumed): as the sequence (P01137 30-390) above
Protocol: (§2) Anti-LAP antibodies were tested for their ability to bind to U937 cells, a myeloid cell line derived from a patient with histiocytic lymphoma. U937 cells were incubated with FACS buffer and human Fc block followed by incubation with varying concentrations of Alexa 647 conjugated 28G11_hyb, 22F9_mIgG2a, or 20E6_mIgG2a. In a separate experiment U937 cells were incubated with FACS buffer and human Fc block followed by incubation with 10 ug/ml of Alexa 647 conjugated 28G11_hyb, 22F9_mIgG2a, 20E6_mIgG2a or mIgG2a isotype control (FIGS. 10E and 10F). Representative dot plots are shown in FIG. 10G; in these plots, antibodies were at 10 ug/ml.

LAP-TGFβ1 on U937 cells [17] = target: T7, LAP-TGFβ1 on U937 cells; assay: flow cytometry dot plot against GARP, U937 cells, Alexa 647 antibody at 10 ug/ml
Protocol: as §2

T1 sequence (P01137 other isoform, or with tags, fused parts or gaps mutant): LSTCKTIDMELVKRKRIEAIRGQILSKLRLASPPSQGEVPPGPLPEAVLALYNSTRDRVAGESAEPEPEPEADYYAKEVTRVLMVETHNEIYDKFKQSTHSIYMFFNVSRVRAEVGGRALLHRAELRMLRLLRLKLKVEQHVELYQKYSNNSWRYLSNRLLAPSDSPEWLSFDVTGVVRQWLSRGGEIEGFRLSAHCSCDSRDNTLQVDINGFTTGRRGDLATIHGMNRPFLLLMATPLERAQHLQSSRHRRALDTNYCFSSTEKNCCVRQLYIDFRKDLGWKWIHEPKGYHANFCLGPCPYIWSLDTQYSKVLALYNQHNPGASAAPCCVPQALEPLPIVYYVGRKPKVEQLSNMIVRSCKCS

B1: 28G11_(hyb) (antibody, mouse IgG2b, kappa, V domains shown)
VH: EVKLVESGGGLVQPGGSLSLSCAASGFTFTDYYMSWVRQPPGKALEWLGFIRNKPNGYTTEYSASVKGRFTISRDNSQSILYLQMNVLRAEDSATYYCARYTGGGYFDYWGQGTTLTVSS
VL: DIQMTQTTSSLSASLGDRLTISCRASQDISNYLNWYQQKPDGTVKLLIYYTSRLHSGVPSRFSGSGSGTDYSLTISNLEQADIATYFCQQGDTLPWTFGGGTKLEIKR
notes: parental murine antibody; also called murine hybridoma 28G11; biotin-28G11
B1: no binding [1]; no binding [2]; no binding [3]. For the same binder, the “% GFP+/APC+ cells” value [4] was 98.3%, the “% GFP+/APC+ cells” value [5] was 0.5% and the “% GFP+/APC+ cells” value [6] was 94.7%. The “% GFP+/APC+ cells” value [7] was 0.3%, the “% GFP+/APC+ cells” value [8] was 83% and the “% GFP+/APC+ cells” value [9] was 84.1%. The “% GFP+/APC+ cells” value [10] was 84.9%, the “% GFP+/APC+ cells” value [11] was 32.2% and the “% GFP+/APC+ cells” value [12] was 41.7%. For the same binder, the “% GFP+/APC+ cells” value [13] was 3.5%, the “% GFP+/APC+ cells” value [14] was 76.2% and the “% GFP+/APC+ cells” value [15] was 44.4%. The “EC50 (read off the curve)” value (LAP-TGFβ1 on U937 cells [16]) was about 30 µg/mL, the “% of cells in Q1 (antibody axis positive, GARP negative)” value (LAP-TGFβ1 on U937 cells [17]) was 6.56% and the “% of cells in Q2 (antibody axis positive, GARP positive)” value (LAP-TGFβ1 on U937 cells [17]) was 0.16%.

Source: patent US20220017612A1 (TILOS THERAPEUTICS, published 2022)
